Target: T1, CATCH(-) peptide
T1 peptide: Ac-EQEFEFEFEQE-NH2
Assay: gelation on mixing

- binding result: binds
Binder: Ac-QQKFKFKFKQQ-NH2 [CATCH(+) peptide]

Reference: doi:10.1101/2024.09.06.611628 (bioRxiv, 2024)
